1 molecule from publication PMC7641127, “MCL1 binds and negatively regulates the transcriptional function of tumor suppressor p73” (Cell Death & Disease, 2020) can be followed below.

In this assay the target is recombinant MCL1 (human) (UniProt Q07820). Nature of the assay: fluorescence polarisation; direct FPA: recombinant MCL1 with FITC-peptide, 30 min, 1× PBS pH 7.4; limit of detection of the probe 5 nM.

*: point of attachment. FITC = O=C1OC2(c3ccc(O)cc3Oc3cc(O)ccc32)c2ccc(NC(=S)*)cc21; Ahx = NCCCCCC(=O)O Bounds are passed on as bounds.

Sequence of recombinant MCL1 (human) (Q07820 whole entry): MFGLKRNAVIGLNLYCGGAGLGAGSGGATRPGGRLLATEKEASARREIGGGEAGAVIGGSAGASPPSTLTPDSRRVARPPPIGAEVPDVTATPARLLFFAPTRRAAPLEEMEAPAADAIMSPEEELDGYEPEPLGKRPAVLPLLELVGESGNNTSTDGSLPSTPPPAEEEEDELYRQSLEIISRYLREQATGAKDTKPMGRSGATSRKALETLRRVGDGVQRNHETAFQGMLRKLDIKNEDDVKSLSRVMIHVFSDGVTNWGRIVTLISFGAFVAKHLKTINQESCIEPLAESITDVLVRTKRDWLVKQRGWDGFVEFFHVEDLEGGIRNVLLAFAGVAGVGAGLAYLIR

B1: FITC-AHX-BAK peptide (peptide)
peptide: {FITC-Ahx}-GQVGRQLAIIGDDINRRYD-NH2
The term Kd denotes the concentration at which binding is half-saturated. As for B1, the Kd is under 5 nM.
